The target of one assay is T1, Cynomolgus sIL6R (cynomolgus, UniProt A0A2K5WN54 60-396).
T1 construct: extracellular domain; also called IL-6sR of a cynomolgus; cynomolgus IL-6R alpha subunit
T1 sequence: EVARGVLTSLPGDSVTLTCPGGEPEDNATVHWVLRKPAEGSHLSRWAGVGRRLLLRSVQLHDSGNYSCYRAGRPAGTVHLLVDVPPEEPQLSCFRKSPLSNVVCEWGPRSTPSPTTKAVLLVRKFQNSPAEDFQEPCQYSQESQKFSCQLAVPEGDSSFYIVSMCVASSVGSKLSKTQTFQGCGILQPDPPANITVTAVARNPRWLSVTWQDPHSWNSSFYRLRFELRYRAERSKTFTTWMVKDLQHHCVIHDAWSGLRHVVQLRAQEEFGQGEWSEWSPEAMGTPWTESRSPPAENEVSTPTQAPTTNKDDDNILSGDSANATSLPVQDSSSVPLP
Description: BLI, Octet Red 96, BCD89 immobilised on AR2G sensors, receptor titrated from 126 nM to 2 nM, 1:1 model. The source says:
(§1) The interaction of the selected anti-IL6R with interleukin-6 receptors of cynomolgus, guinea pig, dog and mouse was examined with ELISA (FIG. 11, 12). The binding affinity constants of BCD89 antibody to IL-6sR alpha subunit of a human, cynomolgus, guinea pig, dog and mouse were obtained with Octet Red 96 (by ForteBio). BCD89 was nonspecifically immobilized onto the surface of amino reactive sensors of the second generation (AR2G) using standard protocol according to manufacturer's instruction for preparation and immobilization of AR2G sensors. Analysis was conducted at 30° C. using PBS comprising 0.1% Tween-20 and 0.1% BSA as a working buffer. Titration of IL-6R of a human, cynomolgus, guinea pig, dog, rabbit and mouse was performed using a running buffer from concentration of 126 nM to 2 nM, spacing 2.
(§2) Binding curves, after subtracting a reference signal, were analyzed using Octet Data Analysis software (Version 7.0) in accordance with the standard procedure and using 1:1 interaction model.

The target in assay [1] is T2, Human sIL6R (recombinant IL-6sR alpha subunit of a human, Example 13) (human, UniProt P08887 20-365).
T2 construct: extracellular domain; also called recombinant IL-6R of a human; human IL-6R alpha subunit
T2 sequence (looked up): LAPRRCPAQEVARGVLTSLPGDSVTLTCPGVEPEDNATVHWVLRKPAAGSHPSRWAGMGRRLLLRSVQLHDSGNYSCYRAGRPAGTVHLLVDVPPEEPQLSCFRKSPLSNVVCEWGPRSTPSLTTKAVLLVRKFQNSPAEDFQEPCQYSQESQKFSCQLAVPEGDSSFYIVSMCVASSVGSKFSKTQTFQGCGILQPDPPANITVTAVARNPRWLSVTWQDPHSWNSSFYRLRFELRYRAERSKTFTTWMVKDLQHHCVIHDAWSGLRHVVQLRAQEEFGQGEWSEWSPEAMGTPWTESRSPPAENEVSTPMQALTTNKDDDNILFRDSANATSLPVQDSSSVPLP
The description is as above.
From the text: as §1, §2

The target in another assay is T3, Guinea Pig sIL6R (guinea pig).
T3 construct: extracellular domain; also called guinea pig IL-6R; guinea pig IL-6R alpha subunit
The description is as above.
From the text: as §1, §2

A further assay deals with T4, Mouse sIL6R (mouse, UniProt P22272 20-364).
T4 construct: extracellular domain; also called mouse receptor; mouse IL-6R
T4 sequence (looked up): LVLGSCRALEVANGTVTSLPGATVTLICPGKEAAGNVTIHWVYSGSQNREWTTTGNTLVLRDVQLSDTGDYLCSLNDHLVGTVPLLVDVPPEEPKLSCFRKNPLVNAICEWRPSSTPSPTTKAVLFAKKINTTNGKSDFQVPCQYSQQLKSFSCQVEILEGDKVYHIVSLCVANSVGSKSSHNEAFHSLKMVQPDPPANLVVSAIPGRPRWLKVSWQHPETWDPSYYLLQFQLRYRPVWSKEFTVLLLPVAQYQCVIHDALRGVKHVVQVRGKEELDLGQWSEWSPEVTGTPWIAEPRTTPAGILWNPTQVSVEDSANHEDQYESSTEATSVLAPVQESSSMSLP
Description: BLI, Octet Red 96, BCD89 immobilised on AR2G sensors; Table 2 prints '-' for KD.
From the text: as §1, §2

B1: BCD089 antibody (anti-IL-6sR) (antibody, IgG1, V domains shown)
VH: QVQLVQSGGGLVQPGGSLRLSCAASGFTFSSYYMSWVRQAPGKGLEWVSGIYSDGTTHYGDSVKGRFTISRDNAKNTVYLQLNSLRAEDTAMYYCAKGAGPTWWYALDAWGQGTLVTVSS
VL: DIQLTQSPSSVSVSVGERVTIDCKSSQSVLSASNTYLNWYQQKPGQAPQLLIYYASTRESGVPDRFSGSGSGTDFTLTISSLQAEDAAVYYCQQAYRAPVTFGQGTKLEIKR
notes: None of these passages names BCD089; also called BCD89; BCD-BCD-089 IgG1
As for B1, the Kd in the assay with Cynomolgus sIL6R came out at 2.4 nM; in assay [1], 0.663 nM; with Guinea Pig sIL6R, 306 nM. In the assay with Mouse sIL6R, the binding result was “no binding”.

A word on the Kd: it is a measure of binding affinity in units of concentration.

Source of the values: patent publication US20190194313A1 (JOINT STOCK COMPANY BIOCAD, published 2019).
